Assay results from patent publication US20150140018A1 (MEDICAL AND BIOLOGICAL LABORATORIES, published 2015).

Biological target: T1, CXADR protein on human prostate cancer cells (LNCaP-CR, DU-145) (human, UniProt P78310 20-365)
T1 construct: whole, on cells; Endogenous CXADR; also called coxsackievirus and adenovirus receptor; CAR
T1 sequence (looked up): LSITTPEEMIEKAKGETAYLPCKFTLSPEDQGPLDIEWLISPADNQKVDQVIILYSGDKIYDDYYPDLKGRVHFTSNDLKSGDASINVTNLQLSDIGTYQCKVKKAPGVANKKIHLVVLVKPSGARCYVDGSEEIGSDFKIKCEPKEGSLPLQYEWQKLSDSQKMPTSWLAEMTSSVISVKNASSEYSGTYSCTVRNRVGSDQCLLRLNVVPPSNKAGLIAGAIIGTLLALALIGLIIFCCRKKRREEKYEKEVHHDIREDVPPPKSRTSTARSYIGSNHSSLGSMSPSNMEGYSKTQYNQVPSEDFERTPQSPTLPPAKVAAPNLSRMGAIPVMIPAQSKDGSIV
Test: flow cytometry, purified antibody at 5 ug/mL on LNCaP-CR and DU-145 cells that express CXADR

binding result: binds
B1: anti-CXADR antibody 7F8A (antibody, V domains shown)
VH: DVQLQESGPGLVKPSQTVSLTCTVTGYSITNGNHWWNWIRQVSGSKLEWIGYINSSGSTDSNPSLKSRISITRDTSKNQLFLQLNSVTIEDIATYYCARDDYYFDYWGQGTTLTVSS
VL: DIQMTQSPASLSASVGETVTITCRASENIDSYLAWYQQKQGKSPQLLVYAATLLADGVPSRFSGSGSGTQYSLKINSLQSEDVARYYCQHYYSTPLTFGAGTKLELKR
notes: also called 7F8A clone
